target: acetylcholine receptor; test: SPR, AchR immobilized on CM5 chip, peptide at 10 uM

Binding affinity (RU) | Binder
19 RU | KPHIK [5mer-728]
22 RU | KIMWR [5mer-732]
14 RU | KTTAK [5mer-724]
32 RU | KTEAK [5mer-744]
28 RU | KNTNR [5mer-1027]
16 RU | KDCPR [5mer-739]
28 RU | RMAMR [5mer-1028]
16 RU | KATER [5mer-734]
17 RU | KCCKR [5mer-1038]
24 RU | RCTWK [5mer-1017]
28 RU | REWDK [5mer-1033]
15 RU | KFEMK [5mer-1043]
33 RU | KATMK [5mer-726]
20 RU | KCKFR [5mer-717]
33 RU | KNHKK [5mer-722]
22 RU | RASPR [5mer-723]
21 RU | KISER [5mer-719]
19 RU | RNADR [5mer-725]
20 RU | KFWAK [5mer-1018]

Binding affinity (RU) | Binder
26 RU | KITHK [5mer-1021]
25 RU | RHKWK [5mer-1025]
19 RU | RNKKK [5mer-718]
14 RU | RFAKK [5mer-1034]
28 RU | KKSFR [5mer-1037]
32 RU | KDPKR [5mer-720]
23 RU | RHHMR [5mer-1032]
23 RU | KEPDK [5mer-729]
15 RU | KYAFR [5mer-743]
12 RU | KCKVK [5mer-1020]
19 RU | KEHVR [5mer-1035]
29 RU | KIADK [5mer-1022]
24 RU | KKHHR [5mer-736]
20 RU | RNAVR [5mer-1026]
25 RU | KADIK [5mer-1029]
22 RU | RYSKK [5mer-721]
11 RU | RNSDK [5mer-742]
23 RU | KTHMK [5mer-1036]
26 RU | KIDNK [5mer-1024]

Binding affinity (RU) | Binder
29 RU | KTPMK [5mer-738]
23 RU | KTCDR [5mer-733]
28 RU | RFKFK [5mer-1019]
31 RU | KMDAR [5mer-727]
27 RU | KFCNK [5mer-730]
18 RU | RISDK [5mer-1030]
18 RU | KADHK [5mer-731]
11 RU | RHCER [5mer-735]
17 RU | KTPWR [5mer-1040]
13 RU | RKEER [5mer-1031]
13 RU | RINVR [5mer-737]
28 RU | KYTMR [5mer-1016]
13 RU | RYCKK [5mer-1023]
25 RU | KINVR [5mer-716]
14 RU | KPTPR [5mer-741]
27 RU | RDWFK [5mer-1041]
32 RU | KKDVK [5mer-1039]
28 RU | RCCAK [5mer-1042]
21 RU | RMMGK [5mer-740]
